Data from US20250066745A1, “MUTANTS AND USE THEREOF” (BGI SHENZHEN, priority 2021, published 2025).
Several values for one entry are separate records, joined by “and”; a condition that tells them apart may be missing. Equal entries are not always repeated.

Experiments:
[1] = Luminescence activity assay of purified Gaussia luciferase mutants on coelenterazine; type: biochemical; conditions: for Measured luminescence intensity (CTZ): purified luciferase 1 μg/mL, 10 μL, 90 μL substrate coelenterazine 100 μM; for Ratio of luminescence intensities of advantageous mutant to wild-type Gaussia luciferase without signal peptide (CTZ): substrate coelenterazine 100 μM, vs no sp Gluc average
Procedure, shortened: (§1)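 Readout: luminescence intensity, as ratio to signal-peptide-free wild-type enzyme. Enzyme 1 μg/mL, substrate 100 μM stock, 10 μL + 90 μL; buffer 50 mM Tris-HCl pH 8.0, 100 mM NaCl, 0.1% Tween-20.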

[2] = Luminescence activity assay of purified Gaussia luciferase mutants on fluoro-coelenterazine; type: biochemical; conditions: for Measured luminescence intensity (f-CTZ): purified luciferase 1 μg/mL, 10 μL, 90 μL substrate fluoro-coelenterazine 100 μM; for Ratio of luminescence intensities of advantageous mutant to wild-type Gaussia luciferase without signal peptide (f-CTZ): substrate fluoro-coelenterazine 100 μM, vs no sp Gluc average
Procedure, shortened: as §1

[3] = Luminescence activity assay of purified Gaussia luciferase mutants on coelenterazine derivative ZS2; type: biochemical; conditions: for Measured luminescence intensity (ZS2): purified luciferase 1 μg/mL, 10 μL, 90 μL substrate ZS2 100 μM; for Ratio of luminescence intensities of advantageous mutant to wild-type Gaussia luciferase without signal peptide (ZS2): substrate ZS2 100 μM, vs no sp Gluc average
Procedure, shortened: as §1

[4] = Substrate specificity test of combinatorial mutants: activity on coelenterazine derivative ZS26; type: biochemical
Description: In this Example, the protein concentration was determined with a BCA quantitative kit (Thermo Scientific™ Pierce™ BCA Protein Assay Kit) accurately. The purified luciferase obtained in Example 5 was diluted with diluent (50 mM Tris-HCl, pH 8.0, 100 mM NaCl, 0.1% (v/v) Tween-20) to 1 μg/mL. The diluted luciferase, taken for 10 μL, was moved into a black 96-well plate, then added with 90 μL of the substrates coelenterazine, fluoro-coelenterazine or coelenterazine derivative ZS2 (purchased from Biolab) which was diluted into 100 μM with the same diluent, and the luminescence intensity of the plate was read with a self-luminescence module of a microplate reader. The mutation site of the mutant, the measured luminescence intensity, the ratio of luminescence intensities of the advantageous mutants to the wild-type Gaussia luciferase without the signal peptide having the sequence shown in SEQ ID NO: 3 are shown in Table 15. The results of catalytic activity assay of the advantageous mutants relative to the wild-type Gaussia luciferase without the signal peptide having the sequence shown in SEQ ID NO: 3 on substrate coelenterazine are shown in FIG. 6. […] The results of catalytic activity assay of the advantageous mutants relative to the wild-type Gaussia luciferase without the signal peptide having the sequence shown in SEQ ID NO: 3 on substrate fluoro-coelenterazine are shown in FIG. 7.
The new mutant library constructed in Example 7 was screened and tested for substrate specificity. Expression and purification schemes were the same as that in Example 5, and the activity assay scheme was the same as that in Example 6. The respective catalytic activities of combinatorial mutants on coelenterazine, fluoro-coelenterazine or coelenterazine derivative ZS2, and coelenterazine derivative ZS26 (purchased from BIOLAB) were assayed, and comparisons among the substrate specificities of the combinatorial mutants were based on the ratios of catalytic activities on two corresponding substrates.

[5] = Activity assay of Gaussia luciferase at bacteria solution level (substrate CTZ); type: cell-based; conditions: OrigamiB (DE3) competent cells; 100 μL induced bacteria solution; CTZ final 100 μM; FIG. 4
Description: The expression plasmids pET28a-Gluc wt and pCold-no sp Glue obtained in Example 1 were individually transformed into BL21 (DE3) competent cells or OrigamiB (DE3) chemically competent cells (WEIDI BIO, EC1020S) and applied to plate medium. Then single colonies were picked from the plate for culture overnight at 37° C. The cultured clones were diluted at the ratio of 1:100 the next day, and transferred into 3 mL of fresh LB medium with ampicillin at 100 μg/mL, shaked at 37° C., 200 rpm until OD600≈0.5-0.6, followed by cooling on ice for 1 hour. IPTG was added at a final concentration of 1 mM as inducer for induction overnight at 16° C.
The induced bacteria solution, taken for 100 μL, was moved into a black 96-well plate, then added with 100 μL of a substrate CTZ (purchased from BIOLAB) at a final concentration of 100 μM. The luminescence intensity was read with a self-luminescence module of a microplate reader. […] Accordingly, the subsequent experiments were conducted with the Gaussia luciferase without the signal peptide.

B1: mutant 4-C12: Gaussia luciferase combinatorial mutant encoded by SEQ ID NO: 43 (protein)
chain: MKPTENNEDFNIVAVASNFATTDLDADRGKLPGKKLPLEVLKEMEANARKAGCTRGCLICLSKIKCTPKMKKFIPGRCHTYEGDKSTGQGGIGPAIVDIPEIPGFKDMEPMEQFIAQVDLCEDCTTGCLKGLANVQCSDLLKKWLPQRCATFASKIQGQVDKIKGAGGD
With B1 the “measured value, CTZ” value ([1]; purified combinatorial mutant, substrate coelenterazine (CTZ)) was 1675889, the “measured value, f-CTZ” value ([2]; purified combinatorial mutant, substrate fluoro-coelenterazine (f-CTZ)) was 167522 and the “measured value, ZS-2” value ([3]; purified combinatorial mutant, substrate coelenterazine derivative ZS2) was 773694. The “ratios of catalytic activities on ZS2 relative to ZS26” value ([3]; substrate specificity, FIG. 10, in words) was “significantly improved”, the “measured value, ZS-26” value ([4]; purified combinatorial mutant, substrate coelenterazine derivative ZS26) was 64057 and the “ratio of catalytic activities, ZS2/ZS26” value ([4]; substrate specificity, ZS2 relative to ZS26) was 12.08. The “ratio of catalytic activities, CTZ/ZS26” value ([4]; substrate specificity, coelenterazine relative to ZS26) was 26.16 and the “ratio of catalytic activities, f-CTZ/ZS26” value ([4]; substrate specificity, fluoro-coelenterazine relative to ZS26) was 2.62.

B2: no sp Gluc: wild type Gaussia luciferase without signal peptide, having a sequence shown in SEQ ID NO: 3 (protein)
chain: KPTENNEDFNIVAVASNFATTDLDADRGKLPGKKLPLEVLKEMEANARKAGCTRGCLICLSHIKCTPKMKKFIPGRCHTYEGDKESAQGGIGEAIVDIPEIPGFKDLEPMEQFIAQVDLCVDCTTGCLKGLANVQCSDLLKKWLPQRCATFASKIQGQVDKIKGAGGD
In the case of B2, the “luminescence value at bacteria solution level” value [5] is reported as “highest luminescence value”, the “Measured luminescence intensity (CTZ)” value [1] is reported as 253597 and 276603 and 266322 and the “Measured luminescence intensity (CTZ)” value ([1]; listed as no sp Gluc average) is reported as 265507.3. The “Ratio of luminescence intensities of advantageous mutant to wild-type Gaussia luciferase without signal peptide (CTZ)” value [1] was 0.96 and 1.04 and 1, the “Ratio of luminescence intensities of advantageous mutant to wild-type Gaussia luciferase without signal peptide (CTZ)” value ([1]; listed as no sp Gluc average) was 1 and the “Measured luminescence intensity (f-CTZ)” value [2] was 5662 and 7198 and 6191. The “Measured luminescence intensity (f-CTZ)” value ([2]; listed as no sp Gluc average) was 6350.333, the “Ratio of luminescence intensities of advantageous mutant to wild-type Gaussia luciferase without signal peptide (f-CTZ)” value [2] was 0.89 and 1.13 and 0.97 and the “Ratio of luminescence intensities of advantageous mutant to wild-type Gaussia luciferase without signal peptide (f-CTZ)” value ([2]; listed as no sp Gluc average) was 1. The “Measured luminescence intensity (ZS2)” value [3] was 18344 and 20707 and 22415, the “Measured luminescence intensity (ZS2)” value ([3]; listed as no sp Gluc average) was 20488.67 and the “Ratio of luminescence intensities of advantageous mutant to wild-type Gaussia luciferase without signal peptide (ZS2)” value [3] was 0.9 and 1.01 and 1.09. For the same molecule, the “Ratio of luminescence intensities of advantageous mutant to wild-type Gaussia luciferase without signal peptide (ZS2)” value ([3]; listed as no sp Gluc average) was 1.
